Reference: article PMC4105619, “Identification and Characterisation of Aedes aegypti Aldehyde Dehydrogenases Involved in Pyrethroid Metabolism” (PLoS ONE, 2014)

B1: ALDH9948 (Aedes aegypti) (protein)
chain: MANANPEIKYTQLFINNEFVDAVSGKVFPTVNPSTGKKIVDIAEGDKADVDLAVQAAKAAFQRSSKWRQMDASARGKLIYKLADLMERDMHQIASLESLDNGKPYMSAVYDVYGSMNCLRYYAGWTDKVCGETVPSDGPHLTYTRKEPFGVVGQIIPWNYPLLMLAWKWGPALAAGCTIVMKPAEQTPLTALYMCSLVKEAGFPPGVVNMVPGYGPTAGNAITMHPDIRKVAFTGSVEVGKIVMAGAASNLKKVSLELGGKSPLVICDDVDVNEAAQIAYTGVFENMGQCCIAATRTFVQEGIYDAFVQKATELAKGRKVGNPFSQGIQHGPQIDDIQFKKILGFIETGKKEGAKLETGGVQVGEEGYFIEPTVFSNVTDEMTIAKEEIFGPVQSIIKFKTLDEAIERANATSFGLAAGIVTKNLNNALTFSNAVEAGSVWVNTYLAVSNQAPFGGYKQSGVGREMGKEGIEEYLETKTVSIKLPSKV
notes: full length, N-terminal His6 fusion from pET100-D/TOPO, E. coli BL21 Star (DE3), HisTrap Ni purified, about 65 kDa on SDS-PAGE; cDNA from PMD-R strain
B2: ALDH14080 (Aedes aegypti) (protein)
chain: MANPNQEIKYTKLFINNQFVDSQSGKTFPTLNPATGQKIVDVAEGDKADVDIAVQAAKTAFARSSAWRQMDASARGKLLHKLADLMERDINVLANLESLDNGKAFGDSVFDMNCAIDTFRYYAGWADKIHGSTVPSDGPVMTYIRKEPVGVVGQIIPWNYPVLMLTWKWAPALATGCTLVLKPAEQTPLSALYMAALSKEAGFPDGVINVVNGYGPTVGAAIVNHAEIRKVAFTGSVETGRLITEGSSKSNLKRVSLELGGKSPLVVFDDFDVDEAVEIAHNAIFANHGQNCCAGSRTFVQEGVYDKFVAKAAEMAKARKVGDAFAEGTQQGPQVDEEQLNKILGFFESASKEGAKLQTGGKRHGNVGYFVEPTVYSDVTDEMRIAREEIFGPVQSILKFKTLDEVIERANRTEYGLAAGVLTNNLNNALVFSNAVEAGSVWVNCYDYVMPTTPFGGFKQSGHGRELGYDGIELYTETKTVTIKLPSKV
notes: as for B1

Tests used:
purified protein [1] = substrate: NC(=O)c1ccc[n+]([C@@H]2O[C@H](COP(=O)(O)OP(=O)(O)OC[C@H]3O[C@@H](n4cnc5c(N)ncnc54)[C@H](O)[C@@H]3O)[C@@H](O)[C@H]2O)c1; test: purified protein; type: biochemical, Aedes aegypti; details: saturating PBald, 33 mM phosphate pH 8.2, 1 mM EDTA, 0.1 mM pyrazole, 37°C, varied: cofactor
purified protein [2] = substrate: O=Cc1cccc(Oc2ccccc2)c1; test: purified protein; type: biochemical, Aedes aegypti; details: saturating NAD+, 33 mM phosphate pH 8.2, 1 mM EDTA, 0.1 mM pyrazole, 37°C

Row | Protein | Km (purified protein [1]) [µM] | Km (purified protein [2]) [µM]
1 | B1 | 0.1391 ± 0.0279 | 0.1538 ± 0.0308
2 | B2 | 0.1938 ± 0.0345 | –
